From article PMC3150355, “TAT-Mediated Transduction of MafA Protein In Utero Results in Enhanced Pancreatic Insulin Expression and Changes in Islet Morphology”

Molecular target: TAT-MafA (unphosphorylated, PBS treated) (human, UniProt Q8NHW3 1-353)
Experiment: EMSA; unphosphorylated; basal DNA-binding activity; Pierce LightShift chemiluminescent EMSA kit; 200 fmol/ul biotin-DNA, unlabeled competitor 10 pmol/ul, 82.15 ug TAT-MafA; ERK2 or PBS 37 C 1 h, then 20 min binding; buffer, pH and binding temperature not stated
Details: protein: recombinant; TAT PTD (11 aa) and 6xHis, pTAT-2.1 (pET28); chain copies: 2; blunt

Chain of TAT-MafA (unphosphorylated, PBS treated) (Q8NHW3 whole entry): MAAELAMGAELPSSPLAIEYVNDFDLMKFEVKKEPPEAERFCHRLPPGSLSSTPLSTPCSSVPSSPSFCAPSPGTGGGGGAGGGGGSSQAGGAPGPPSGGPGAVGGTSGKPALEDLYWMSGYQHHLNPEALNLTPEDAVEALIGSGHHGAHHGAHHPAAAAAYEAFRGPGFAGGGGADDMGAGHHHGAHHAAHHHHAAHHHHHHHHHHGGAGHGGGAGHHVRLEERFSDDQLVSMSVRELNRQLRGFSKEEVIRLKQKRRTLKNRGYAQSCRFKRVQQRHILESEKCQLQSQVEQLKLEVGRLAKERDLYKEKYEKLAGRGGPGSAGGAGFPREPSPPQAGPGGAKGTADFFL

B1: insulin promoter -139 to -104 (C1 box) (dsDNA)
DNA 1: ATGGTCCGGAAATTGCAGCCTCAGCCCCCAGCCATC
DNA 2: GATGGCTGGGGGCTGAGGCTGCAATTTCCGGACCAT
B1: binds.
